From US20230381310A1 come the findings set out here.

The target in this experiment is human FcγRIIb (CD32B) (human) (UniProt P31994). Briefly: cell-based or functional assay.
UniProt P31994, sequence (P31994 43-310): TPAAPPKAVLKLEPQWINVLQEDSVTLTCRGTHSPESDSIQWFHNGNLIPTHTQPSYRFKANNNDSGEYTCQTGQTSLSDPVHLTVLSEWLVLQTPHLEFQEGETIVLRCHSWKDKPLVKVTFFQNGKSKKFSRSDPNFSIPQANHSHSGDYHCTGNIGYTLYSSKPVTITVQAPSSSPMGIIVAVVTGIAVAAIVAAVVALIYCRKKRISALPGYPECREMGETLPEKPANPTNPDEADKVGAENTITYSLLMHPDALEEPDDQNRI

rituximab F(ab')2 fragment returned a surface accessible CD20 after 6 h culture (CLL cells) of 40%.
